From the nanobody polyreactivity screen of Harvey et al. (2022)

experiment: yeast display, Sf9 membrane polyspecificity reagent, FACS + sequencing; frameworks hold sequencing errors
How it was run: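 A nanobody's polyreactivity label depends on the gate it was sorted from. Yeast display cells were stained with 10% biotinylated, detergent-solubilized Sf9 membrane reagent for 1 hour at 4 °C, enriched on streptavidin microbeads and sorted by FACS. The low and high (top ~1%) gates were set on anti-HA fluorescence for expression and streptavidin fluorescence for reagent binding.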

Sequence	polyreactivity (PSR sort gate)
QVQLVESGGGLVQAGGSLRLSCAASGFTFGYYAMGWYRQAPGKERELVAAITWSGGRTYYADSVKGRFTISRDNAKNTVYLQMNSLKPEDTAVYYGAVETLWQGSEYWGQGTQVTVSS	low polyreactivity
QVQLVESGGGLVQAGGSLRLSCAASGFTFGYYAMGWYRQAPGKERELVAAITYDGDITYYADSVKGRFTISRDNAKNTVYLQMNSLKPEDTAVYYCAADTVYRSYYWGQGTQVTVSS	low polyreactivity
QVQLVESGGGLVQAGGSLRLSCAASGFTFGYYAMGWYRQAPGKERELVAGITTDGSTNYADSVKGRFTISRDNAKNTVYLQMNSLKPEDTAVYYCAADDLHWLNSKRYRGRDYWGQGTQVTVSS	low polyreactivity
QVQLVESGGGLVQAGGSLRLSCAASGFTFGYYAMGWYRQAPGKERELVATIDRGGGTSYADSVKGRFTISRDNAKNTVYLQMNSLKPEDTAVYYCAAVRQGYVAYYYWGQGTQVTVSS	high polyreactivity
QVQLVESGGGLVQAGGSLRLSCAASGFTFGYYAMGWYRQARGKERELVAAISSRGSGTYYADSVKGRFTISRDNAKNTVYLQMNSLKPEDTAVYYCARPAALLGYWGQGTQVTVSS	low polyreactivity
QVQLVESGGGLVQAGGSLRLSCAASGFTFHKNAMGWYRQAPGKERELVAAISRSGGRTYYADSVKGRFTISRDNAKNTVYLQMNSLKPEDTAVYYCNATPLLWAGYDYWGQGTQVTVSS	high polyreactivity
QVQLVESGGGLVQAGGSLRLSCAASGFTFHVNTMGWYRQAPGKERELVAAISRSGGSTYYADSVKGRFTISRDNAKNTVYLQMNSLKPEDTAVYYCATPSPGYTYDPRTQEENDYWGQGTQVTVSS	low polyreactivity
QVQLVESGGGLVQAGGSLRLSCAASGFTFHWYAMGWYRQAPGKERELVAAISWSGGSTYYADSVKGRFTISRDNAKNTVYLQMNSLKPEYTAVYYCNAGVYWPGEFDYWGQGTQVTVSS	high polyreactivity
QVQLVESGGGLVQAGGSLRLSCAASGFTFHWYAMGWYRQAPGKERELVAAITDTGGSTYYADSVKGRFTISRDNAKNTVYLQMNSLKPEDTAVYYCATRHSKYGYEYDYWGQGTQVTVSS	low polyreactivity
QVQLVESGGGLVQAGGSLRLSCAASGFTFHYYTMGWYRQAPGKDRELVATIRWSAGSTYYADSVKGRFTISRDNAKNTVYLQMNSLKPEDTAVYYCAVRSLRVDKYGYWGQGTQVTVSS	high polyreactivity
QVQLVESGGGLVQAGGSLRLSCAASGFTFIAYAKGWYRQAPGKERELVAAISRRGGSTYYADSVKGRFTISRDNAKNTVYLQMNSLKPEDTAVYYCAKESRKKTDYDYWGQGTQVTVSS	high polyreactivity
QVQLVESGGGLVQAGGSLRLSCAASGFTFIGYAMGWYRQAPGKERELVAAITWRGGRTYYADSVKGRFTISRDNAKNTVYLQMNSLKPEDTAVYYCAADGYTVVNSYYWGQGTQVTVSS	high polyreactivity
QVQLVESGGGLVQAGGSLRLSCAASGFTFIKYAMGWYRQAPGKEREFVAAITRSGTSTYYADSVKGRFTISRDNAKNTVYLQMNSLKPEDTAVYYCAARYVYNSDRVSERDYWGQGTQVTVSS	high polyreactivity
QVQLVESGGGLVQAGGSLRLSCAASGFTFIKYAMGWYRQAPGKEREFVPTISWNGGNTYYADSVKGRFTISRYNAKNTVYLQMNSLKPEDTAVYYCAARVKYRTRGGTVVSYDYWGQGTQVTVSS	high polyreactivity
QVQLVESGGGLVQAGGSLRLSCAASGFTFILYTMGWYRQAPGKERELVAAITWRGGNTYYADSVKGRFTISRDNAKNTVYLQMNSLKPEDSAVYYCAAETYYASWEMDYWGQGTQVTVSS	high polyreactivity
QVQLVESGGGLVQAGGSLRLSCAASGFTFIRYAMGWYRQAPGKERELVAAIRGTGTSTYYADSVKGRFTISRDNAKNTVYLQMNSLKPEDTAVYYCNKVSGRSPYTRYDYWGQGTQVTVSS	low polyreactivity
QVQLVESGGGLVQAGGSLRLSCAASGFTFISNAMGWYRQAPGKERELVAAISSSGGRTYYADSVKGRFTISRDNAKNTVYLQMNSLKPEDTAVYYCNADRSLLYSRKIEYDYWGQGTQVSVSS	low polyreactivity
QVQLVESGGGLVQAGGSLRLSCAASGFTFKFYAMGWYRQAPGKERELVAAISGSGDSTYADSVKGRFTISRDNAKNTVYLQINSLKPEDTAVYYFNGRYAGVPWWGYYSRFDYWGQVTQVTVSS	low polyreactivity
QVQLVESGGGLVQAGGSLRLSCAASGFTFKKYAMGWYRQAPGKERELVAAISSSGGRTTYADSVKGRFTISRDNAKNTVYLQMNSLKPEDTAVYYCNADRYTAVRAYDYWGQGTQVTVSS	low polyreactivity
QVQLVESGGGLVQAGGSLRLSCAASGFTFKRYAMGWYRQAPGKERELVAAITGSGGSTYYADSVKGRFTISRDNAKNTVYLQMNSLKPEDTAVYYCAKKRIYWSGRPTIGTYIMGYWGQGTQVTVSS	high polyreactivity
QVQLVESGGGLVQAGGSLRLSCAASGFTFKSYAMGWYRQAPGKEREFVASISRRGGSTYYADSVKGRFTISRDNAKNTVYLQMNSLKPEDTAVYYCATDRPNWVFVDYNYWGQGTQVTVSS	high polyreactivity
QVQLVESGGGLVQAGGSLRLSCAASGFTFKTNAMGWYRQAPGKERELVAAITSGGSTNYADSVKGRFTISRDNAKNTVYLQMNSLKPVDPAVYYCAADYGVWSEYAGWHAAFDYWGQGTQVTVSS	low polyreactivity

Sequence	polyreactivity (PSR sort gate)
QVQLVESGGGLVQAGGSLRLSCAASGFTFKWSAMGWYRPAPGKETELVATITIGGRTNYADSVKGRFTISRDNAKYTVYLQMNSLKPEDTAVYYGATYFVGFRLSDYDYWGQGTQVTVSS	low polyreactivity
QVQLVESGGGLVQAGGSLRLSCAASGFTFKYYAMGWYRQAPGKERELVATITRSGGNTYYADSVKGRFTISRDNAKNTVYLQMNSLKPEDTAVYYCNKGVRRSVYSRYDYWGQGTQVTVSS	high polyreactivity
QVQLVESGGGLVQAGGSLRLSCAASGFTFLFNAMGWYRQAPGKERELVADITWSGGSTYYADSVKGRFTISRDNAKNTVYLQMNSLKPEDTAVYYCAASDDWSTPIYYYSVFDYDYWGQGTQVTVSS	high polyreactivity
QVQLVESGGGLVQAGGSLRLSCAASGFTFLGYAMGWYRKAPGKERELDASITYGGDSTYYADSVKARFTISRDNAKNTFYLEMISLKPEDTAVYYCNARPSYWWGGRLYGYWGQGSQVTVSS	high polyreactivity
QVQLVESGGGLVQAGGSLRLSCAASGFTFLKYAMGWYRQAPGKERELVARITSGGRTYYADSVKGRFTISRDNAKNTVYLQMNSLKPEDTAVYYCNAVKSYASLYAGFYYWGQGTQVTVSS	high polyreactivity
QVQLVESGGGLVQAGGSLRLSCAASGFTFLVYAMGWYRQAPGKERELVAAISRRGGSTYYADSVKGRFTISRDNAKNTVYLQINSLKPEDTAVYYCNVDRYYRIGYYRLTMGYWGQGTQVTVSS	high polyreactivity
QVQLVESGGGLVQAGGSLRLSCAASGFTFLVYAMGWYRQAPGKERELVAAITWSGDSTYYADSVKGRFTISRDNAKNTVYLQMNSLKPEDTAVYYCAAAYRYGTLYYYWGQGTQVTGSS	low polyreactivity
QVQLVESGGGLVQAGGSLRLSCAASGFTFLYNVMGWYRQAPGKERELVAAISQSGTDTYYADSVKGRFTISRDNAKNTVYLQMNSLKPEDTAVYYCATEYYSQPRDDSWGQGTQVTVSS	low polyreactivity
QVQLVESGGGLVQAGGSLRLSCAASGFTFLYYDMGWYRQAPGKERELVAAITSSGTSTYYADSVKGRFTISRDNAKNSVYLQMNSLKPEDTAVYYCAVMYTYAGRHRYGYWGQGTQVTVSS	high polyreactivity
QVQLVESGGGLVQAGGSLRLSCAASGFTFNANARGWYRQAPGKEREVVAVITRSGGRTYYADSVKGRFTISRDNAKNTVYFQMNSLNPEDTAVYYCAKEGPSRVYQGTDCASDSWGHGTQVTVSS	high polyreactivity
QVQLVESGGGLVQAGGSLRLSCAASGFTFNCNAMGWYRQAPGKERELVAAIRSSGGSTYYADSVKGRFTISRDNAKYTVYLQMNSLKPEDTAVYYCAARRSNLYYGGTRYWYYYWGQGTQVTVSS	high polyreactivity
QVQLVESGGGLVQAGGSLRLSCAASGFTFNDYAMGWYRQAPGKERELVAAIDWSGGRTYYADSVKGRFTISRDNAKNTVYLQMNSLKPDDTAVYYCAAVLYSRLYWYRLDYWGQGTQVTVSS	low polyreactivity
QVQLVESGGGLVQAGGSLRLSCAASGFTFNGYAMGWYRQAPGKERELVAAINWSGGRTYYADSVKGRFTISRDNAKNTVYLQMNSLKPEDTAVYYCNAVLYVTNSFRFDYWGQGTQVTVSS	high polyreactivity
QVQLVESGGGLVQAGGSLRLSCAASGFTFNNYAMGWYRQAPGKERELVAAISSGAGTYYADSVKGRFTISRDNAKNTVYLQMNSLNPVDTSVDYCNASLKYQGRTRITYRDDYWGQGTQVTVSS	low polyreactivity
QVQLVESGGGLVQAGGSLRLSCAASGFTFNRNAMGWYRQAPGKERELVAAITKRGGSTFYADSVKGRFTISRDNAKNTVYLQMNSLKPEDTAVYYCAASVATYFPRHYDYWGQGTQVTVSS	high polyreactivity
QVQLVESGGGLVQAGGSLRLSCAASGFTFNRYAMGWYRQAPGKEREFVAAITRRGGNTYYADSVKGRFTISRDNAKNTVYLQMNSLKPEDSAVYYCNAVFGPSSYGAKEYDYWGQGTQVTVSS	high polyreactivity
QVQLVESGGGLVQAGGSLRLSCAASGFTFNRYAMGWYRQAPGKERELVARITRGGSTKYADSVKGRFTISRDNAKNTVYLEMNSLKPEDTAVYYCAADYGGFLVYDYWGQGTQVTVSS	high polyreactivity
QVQLVESGGGLVQAGGSLRLSCAASGFTFNSYAMGWYRQAPGKERELVAAISWSGGSTYYADSVKGRFTISRDNAKNTVYLQMNSLKPEDTAVYYCNRDGLSRPYYYWGQGTQVTLSS	high polyreactivity
QVQLVESGGGLVQAGGSLRLSCAASGFTFNSYVMGWSRQAPGKERELVAAITRSGDRTYYADSVKGRFTISRDNAKNTVYLQMNSLKPEDTAVYYCAATWSKNYYGWYYYWGQGTQVTVSS	high polyreactivity
QVQLVESGGGLVQAGGSLRLSCAASGFTFNYAMGWYTQAPGKERELVAAISSAGTTYYADSVKGRFTISRDNAKNTVYLQMNSLKPEDTAVYYCAALARPKQDRYRYYYWGQGTQVTVSS	high polyreactivity
QVQLVESGGGLVQAGGSLRLSCAASGFTFNYNAMGWYRQAPRKERELVAAISRSGGRTYYADSVKGRFTISRDKAKNTVYLQMNSLKPADTAVYYCAADSRTNGYDYWGQGTQVTVSS	high polyreactivity
